Measurements: IntAct's records for PubMed 18715871

B1: Serine/threonine-protein phosphatase 4 catalytic subunit (Homo sapiens), P60510 (parent)
chain: MAEISDLDRQIEQLRRCELIKESEVKALCAKAREILVEESNVQRVDSPVTVCGDIHGQFYDLKELFRVGGDVPETNYLFMGDFVDRGFYSVETFLLLLALKVRYPDRITLIRGNHESRQITQVYGFYDECLRKYGSVTVWRYCTEIFDYLSLSAIIDGKIFCVHGGLSPSIQTLDQIRTIDRKQEVPHDGPMCDLLWSDPEDTTGWGVSPRGAGYLFGSDVVAQFNAANDIDMICRAHQLVMEGYKWHFNETVLTVWSAPNYCYRCGNVAAILELDEHLQKDFIIFEAAPQETRGIPSKKPVADYFL
partner: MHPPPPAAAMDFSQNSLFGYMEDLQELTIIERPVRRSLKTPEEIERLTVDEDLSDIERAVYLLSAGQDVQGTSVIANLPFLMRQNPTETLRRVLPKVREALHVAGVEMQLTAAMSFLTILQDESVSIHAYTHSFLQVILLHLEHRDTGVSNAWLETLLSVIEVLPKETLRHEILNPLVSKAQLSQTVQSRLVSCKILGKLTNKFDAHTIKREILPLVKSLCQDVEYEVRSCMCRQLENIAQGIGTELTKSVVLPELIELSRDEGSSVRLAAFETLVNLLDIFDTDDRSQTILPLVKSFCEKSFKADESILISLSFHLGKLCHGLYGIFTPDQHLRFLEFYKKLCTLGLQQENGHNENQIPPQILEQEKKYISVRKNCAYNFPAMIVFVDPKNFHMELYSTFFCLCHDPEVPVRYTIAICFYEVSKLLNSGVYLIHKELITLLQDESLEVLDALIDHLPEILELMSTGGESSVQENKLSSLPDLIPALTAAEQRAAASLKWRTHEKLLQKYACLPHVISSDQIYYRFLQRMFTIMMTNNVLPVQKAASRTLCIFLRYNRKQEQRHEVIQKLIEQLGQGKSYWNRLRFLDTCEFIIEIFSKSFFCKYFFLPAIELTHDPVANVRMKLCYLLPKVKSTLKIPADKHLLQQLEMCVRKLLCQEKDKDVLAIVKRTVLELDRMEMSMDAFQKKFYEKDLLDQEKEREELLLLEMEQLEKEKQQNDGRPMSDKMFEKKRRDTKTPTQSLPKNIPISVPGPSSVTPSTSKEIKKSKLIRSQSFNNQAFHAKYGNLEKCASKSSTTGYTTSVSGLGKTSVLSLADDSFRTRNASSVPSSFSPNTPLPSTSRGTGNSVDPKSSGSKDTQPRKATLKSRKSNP
B2: Serine/threonine-protein phosphatase 4 regulatory subunit 4 (Homo sapiens), Q6NUP7 (parent)
chain: B1 partner
partner: B1 chain
B3: Serine/threonine-protein phosphatase 4 catalytic subunit (Homo sapiens), P60510 (parent)
chain: B1 chain
partner: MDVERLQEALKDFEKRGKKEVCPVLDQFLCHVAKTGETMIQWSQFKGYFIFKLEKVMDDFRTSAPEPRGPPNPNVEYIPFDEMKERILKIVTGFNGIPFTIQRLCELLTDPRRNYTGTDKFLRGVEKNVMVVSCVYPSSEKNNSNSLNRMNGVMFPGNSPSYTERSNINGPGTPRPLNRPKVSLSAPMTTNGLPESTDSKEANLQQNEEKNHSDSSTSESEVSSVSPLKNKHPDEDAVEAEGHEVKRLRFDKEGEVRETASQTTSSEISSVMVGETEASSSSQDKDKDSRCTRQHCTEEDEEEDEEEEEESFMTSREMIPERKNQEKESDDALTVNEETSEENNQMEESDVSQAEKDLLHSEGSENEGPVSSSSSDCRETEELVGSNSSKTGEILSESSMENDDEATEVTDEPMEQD
B4: Serine/threonine-protein phosphatase 4 catalytic subunit (Homo sapiens), P60510 (parent)
chain: B1 chain
partner: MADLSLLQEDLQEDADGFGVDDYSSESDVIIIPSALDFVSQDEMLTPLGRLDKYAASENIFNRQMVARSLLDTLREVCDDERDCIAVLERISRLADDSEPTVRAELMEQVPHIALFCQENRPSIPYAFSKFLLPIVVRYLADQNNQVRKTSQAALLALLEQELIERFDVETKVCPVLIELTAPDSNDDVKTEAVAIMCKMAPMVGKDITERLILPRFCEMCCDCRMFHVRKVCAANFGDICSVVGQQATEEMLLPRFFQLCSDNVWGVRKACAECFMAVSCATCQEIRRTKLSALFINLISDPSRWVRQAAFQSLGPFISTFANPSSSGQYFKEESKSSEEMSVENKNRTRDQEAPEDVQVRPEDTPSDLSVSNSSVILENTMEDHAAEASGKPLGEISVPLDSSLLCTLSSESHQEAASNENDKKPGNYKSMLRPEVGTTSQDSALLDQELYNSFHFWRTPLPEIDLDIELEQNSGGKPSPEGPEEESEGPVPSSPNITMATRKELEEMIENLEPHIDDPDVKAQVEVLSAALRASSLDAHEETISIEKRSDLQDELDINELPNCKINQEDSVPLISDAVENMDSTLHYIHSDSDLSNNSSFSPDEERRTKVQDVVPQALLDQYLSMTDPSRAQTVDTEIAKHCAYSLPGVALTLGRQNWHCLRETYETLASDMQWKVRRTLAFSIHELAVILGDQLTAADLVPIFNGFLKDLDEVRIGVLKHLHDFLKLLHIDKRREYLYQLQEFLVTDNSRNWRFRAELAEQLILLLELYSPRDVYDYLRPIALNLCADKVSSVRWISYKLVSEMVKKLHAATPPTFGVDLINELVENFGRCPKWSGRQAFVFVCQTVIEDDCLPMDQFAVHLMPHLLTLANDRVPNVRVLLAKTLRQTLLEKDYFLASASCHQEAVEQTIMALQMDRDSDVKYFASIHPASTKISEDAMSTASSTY

Variants of: B1
Conditions: with pp4r4_human PPP4R4, Q6NUP7

Row | Variant | effect of a mutation on the interaction
1 | N76D | decreasing interaction
2 | E39K | decreasing interaction
3 | E64K | disrupting interaction
4 | E277K | disrupting interaction
5 | R107E | decreasing interaction

Variants of: B2
Conditions: with pp4c_human PPP4C

Row | Variant | effect of a mutation on the interaction
6 | V618A | disrupting interaction
7 | V618D | disrupting interaction
8 | R501D | disrupting interaction

Variants of: B3
Conditions: with pp4r2_human PPP4R2, Q9NY27

Row | Variant | effect of a mutation on the interaction
9 | E277K | decreasing interaction
10 | E39K | disrupting interaction
11 | R107E | disrupting interaction
12 | N76D | disrupting interaction

Variants of: B4
Conditions: with pp4r1_human PPP4R1, Q8TF05

Row | Variant | effect of a mutation on the interaction
13 | E64K | disrupting interaction
14 | E277K | decreasing interaction
15 | E39K | disrupting interaction
16 | N76D | disrupting interaction
17 | R107E | disrupting interaction
